According to patent publication US20030068675, “Position dependent recognition of GNN nucleotide triplets by zinc fingers” (published 2003):
Where a chain is given by its changes, count along the chain named.

Tests used:
Assay in all cases: EMSA
Settings in all cases: tags: MBP fusion
ZFP SBS#1354 = biological target: T1, ZFP SBS#1354 (synthetic, UniProt P08047)
T1 chain: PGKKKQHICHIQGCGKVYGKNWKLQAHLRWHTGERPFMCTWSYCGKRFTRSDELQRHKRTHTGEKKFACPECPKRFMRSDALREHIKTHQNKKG
Procedure, shortened: (§1)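 Purified ZFP was titrated against labeled double-stranded target (1 nM or lower, at least 10-fold below expected Kd) carrying the natural binding site with flanks. Binding buffer was 10 mM Tris pH 7.5, 100 mM KCl, 1 mM MgCl2, 0.1 mM ZnCl2, 5 mM DTT, 10% glycerol, 0.02% BSA, with equilibration for at least 45 min. Bound and free target were separated on a 10% polyacrylamide gel.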

ZFP SBS#1353 = biological target: T2, ZFP SBS#1353 (synthetic, UniProt P08047)
T2 chain: T1 chain with K20Q, N21S, W22G, K23H, Q25N, A26Q
Procedure, shortened: as §1

ZFP SBS#1368 = biological target: T3, ZFP SBS#1368 (synthetic)
T3 chain: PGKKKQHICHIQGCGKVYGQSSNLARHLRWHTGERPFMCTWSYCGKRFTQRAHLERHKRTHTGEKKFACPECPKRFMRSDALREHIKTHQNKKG
Procedure, shortened: as §1

ZFP SBS#1369 = biological target: T4, ZFP SBS#1369 (synthetic)
T4 chain: T3 chain with R51S, A52G, E55T
Procedure, shortened: as §1

ZFP SBS#1373 = biological target: T5, ZFP SBS#1373 (synthetic, UniProt P08047)
T5 chain: T1 chain with K20D, N21R, W22S, K23H, Q25T, A26R, E53A, Q55S, R83T, E84R
Procedure, shortened: as §1

ZFP SBS#262 = ZFP SBS#262 (synthetic)
Procedure, shortened: as §1

ZFP SBS#263 = ZFP SBS#263 (synthetic, UniProt P08047)
Procedure, shortened: as §1

ZFP SBS#1355 = ZFP SBS#1355 (synthetic)
Procedure, shortened: as §1

ZFP SBS#1356 = ZFP SBS#1356 (synthetic)
Procedure, shortened: as §1

ZFP SBS#1352 = ZFP SBS#1352 (synthetic)
Procedure, shortened: as §1

ZFP SBS#1360 = biological target: T6, ZFP SBS#1360 (synthetic)
T6 chain: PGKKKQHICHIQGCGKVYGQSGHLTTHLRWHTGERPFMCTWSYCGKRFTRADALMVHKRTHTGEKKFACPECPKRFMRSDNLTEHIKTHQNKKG
Procedure, shortened: as §1

ZFP SBS#1361 = biological target: T7, ZFP SBS#1361 (synthetic)
T7 chain: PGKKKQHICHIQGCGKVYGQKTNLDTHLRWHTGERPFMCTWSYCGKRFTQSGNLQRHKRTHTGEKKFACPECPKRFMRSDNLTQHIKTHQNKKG
Procedure, shortened: as §1

ZFP SBS#1362 = ZFP SBS#1362 (synthetic)
Procedure, shortened: as §1

ZFP SBS#1363 = biological target: T8, ZFP SBS#1363 (synthetic)
T8 chain: T7 chain with S51R, G52S, Q55V
Procedure, shortened: as §1

ZFP SBS#1383 = biological target: T9, ZFP SBS#1383 (synthetic)
T9 chain: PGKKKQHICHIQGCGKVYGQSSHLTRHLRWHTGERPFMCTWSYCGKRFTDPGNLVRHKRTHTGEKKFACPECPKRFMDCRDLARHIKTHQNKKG
Procedure, shortened: as §1

ZFP SBS#1382 = biological target: T10, ZFP SBS#1382 (synthetic)
T10 chain: T9 chain with P51R, G52S, V55T
Procedure, shortened: as §1

ZFP SBS#1380 = biological target: T11, ZFP SBS#1380 (synthetic)
T11 chain: T9 chain with P51R, G52S, V55T, D78E, C79R, R80G, A83T
Procedure, shortened: as §1

ZFP SBS#1381 = biological target: T12, ZFP SBS#1381 (synthetic)
T12 chain: T9 chain with D78E, C79R, R80G, A83T
Procedure, shortened: as §1

ZFP SBS#1384 = biological target: T13, ZFP SBS#1384 (synthetic, UniProt P08047)
T13 chain: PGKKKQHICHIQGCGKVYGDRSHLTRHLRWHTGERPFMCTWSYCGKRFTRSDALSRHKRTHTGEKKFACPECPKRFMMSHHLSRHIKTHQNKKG
Procedure, shortened: as §1

ZFP SBS#1351 = biological target: T14, ZFP SBS#1351 (synthetic)
T14 chain: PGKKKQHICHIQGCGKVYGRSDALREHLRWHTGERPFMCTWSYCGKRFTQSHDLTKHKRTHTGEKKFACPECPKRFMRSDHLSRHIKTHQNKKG
Procedure, shortened: as §1

ZFP SBS#1348 = biological target: T15, ZFP SBS#1348 (synthetic)
T15 chain: T14 chain with R25T, E26A, S51A, H52A, D53T, K56T
Procedure, shortened: as §1

ZFP SBS#1357 = biological target: T16, ZFP SBS#1357 (synthetic)
T16 chain: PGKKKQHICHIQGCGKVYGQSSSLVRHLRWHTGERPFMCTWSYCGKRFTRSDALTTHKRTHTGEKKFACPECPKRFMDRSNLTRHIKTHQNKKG
Procedure, shortened: as §1

ZFP SBS#1358 = biological target: T17, ZFP SBS#1358 (synthetic)
T17 chain: T16 chain with S51A, T55M, T56V
Procedure, shortened: as §1

ZFP SBS#1375 = biological target: T18, ZFP SBS#1375 (synthetic)
T18 chain: T1 chain with K20R, N21S, W22D, K23A, Q25T, A26R, E53D, A81E
Procedure, shortened: as §1

ZFP SBS#1378 = biological target: T19, ZFP SBS#1378 (synthetic)
T19 chain: T1 chain with K20R, N21S, W22D, K23A, Q25T, A26R, E53D, A81D
Procedure, shortened: as §1

ZFP SBS#1379 = biological target: T20, ZFP SBS#1379 (synthetic)
T20 chain: T1 chain with K20R, N21S, W22D, K23A, Q25T, A26R, L54R, Q55K, A81D
Procedure, shortened: as §1

ZFP SBS#1376 = biological target: T21, ZFP SBS#1376 (synthetic)
T21 chain: T1 chain with K20R, N21S, W22D, K23A, Q25T, A26R, L54R, Q55K, A81E
Procedure, shortened: as §1

ZFP SBS#1374 = biological target: T22, ZFP SBS#1374 (synthetic, UniProt P08047)
T22 chain: T1 chain with K20R, N21S, W22D, K23A, Q25T, A26R, A81E
Procedure, shortened: as §1

ZFP SBS#1377 = biological target: T23, ZFP SBS#1377 (synthetic, UniProt P08047)
T23 chain: T1 chain with K20R, N21S, W22D, K23A, Q25T, A26R, A81D
Procedure, shortened: as §1

ZFP SBS#1364 = biological target: T24, ZFP SBS#1364 (synthetic)
T24 chain: T3 chain with S22A, A25S, R51S, A52S, E55A, R83A, E84Q
Procedure, shortened: as §1

ZFP SBS#1365 = biological target: T25, ZFP SBS#1365 (synthetic)
T25 chain: T3 chain with S21R, A25V, R51S, A52S, E55A, R83A, E84Q
Procedure, shortened: as §1

ZFP SBS#1367 = biological target: T26, ZFP SBS#1367 (synthetic)
T26 chain: T3 chain with S21R, A25V, Q50T, R51S, A52G, E55V, R83A, E84Q
Procedure, shortened: as §1

ZFP SBS#1366 = biological target: T27, ZFP SBS#1366 (synthetic)
T27 chain: T3 chain with S22A, A25S, Q50T, R51S, A52G, E55V, R83A, E84Q
Procedure, shortened: as §1

Sequence of ZFP SBS#262 (synthetic) (chain, as listed by the source): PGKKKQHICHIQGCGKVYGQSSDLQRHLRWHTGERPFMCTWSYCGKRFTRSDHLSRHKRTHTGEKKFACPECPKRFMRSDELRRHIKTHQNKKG
Sequence of ZFP SBS#1356 (synthetic) (chain, as listed by the source): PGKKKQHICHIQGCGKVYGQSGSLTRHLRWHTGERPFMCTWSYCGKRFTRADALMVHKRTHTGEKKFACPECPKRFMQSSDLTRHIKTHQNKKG
Sequence of ZFP SBS#263 (P08047 other isoform, or with tags, fused parts or gaps): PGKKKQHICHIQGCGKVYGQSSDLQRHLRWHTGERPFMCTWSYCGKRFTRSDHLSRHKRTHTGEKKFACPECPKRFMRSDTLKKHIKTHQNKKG
Sequence of ZFP SBS#1352 (synthetic) (chain, as listed by the source): as the sequence (P08047 other isoform, or with tags, fused parts or gaps) above, with Q20D, S21R, D23A, Q25A, S55T, R56T, T81A, K83T, K84R counted along it
Sequence of ZFP SBS#1355 (synthetic) (chain, as listed by the source): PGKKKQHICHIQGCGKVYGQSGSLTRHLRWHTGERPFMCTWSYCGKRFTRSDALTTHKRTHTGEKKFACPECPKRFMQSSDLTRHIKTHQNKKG

B1: CTGGCGAGA (dsDNA)
DNA 1: CTGGCGAGA
DNA 2: TCTCGCCAG
Kd (ZFP SBS#1354): 20.9 nM
Kd (ZFP SBS#1353): 56.5 nM

B2: CTGGGAGAT (dsDNA)
DNA 1: CTGGGAGAT
DNA 2: ATCTCCCAG
Kd (ZFP SBS#1368): 0.051 nM
Kd (ZFP SBS#1369): 0.227 nM

B3: GTGGTGGGC (dsDNA)
DNA 1: GTGGTGGGC
DNA 2: GCCCACCAC
Kd (ZFP SBS#1373): 0.025 nM

B4: GCGGGGGCT (dsDNA)
DNA 1: GCGGGGGCT
DNA 2: AGCCCCCGC
Kd (ZFP SBS#262): 20 nM
Kd (ZFP SBS#263): 1 nM

B5: GCTTTGGCA (dsDNA)
DNA 1: GCTTTGGCA
DNA 2: TGCCAAAGC
Kd (ZFP SBS#1355): 0.172 nM
Kd (ZFP SBS#1356): 0.034 nM

B6: GTGTGGGTC (dsDNA)
DNA 1: GTGTGGGTC
DNA 2: GACCCACAC
Kd (ZFP SBS#1352): 0.023 nM

B7: CAGTTGTGA (dsDNA)
DNA 1: CAGTTGTGA
DNA 2: TCACAACTG
Kd (ZFP SBS#1360): 41.7 nM

B8: AAGGAAAAA (dsDNA)
DNA 1: AAGGAAAAA
DNA 2: TTTTTCCTT
Kd (ZFP SBS#1361): 0.835 nM
Kd (ZFP SBS#1362): 0.332 nM
Kd (ZFP SBS#1363): 74.1 nM

B9: GCCGACGGT (dsDNA)
DNA 1: GCCGACGGT
DNA 2: ACCGTCGGC
Kd (ZFP SBS#1383): 1.74 nM
Kd (ZFP SBS#1382): 3.1 nM
Kd (ZFP SBS#1380): 0.076 nM
Kd (ZFP SBS#1381): 0.23 nM

B10: GGTGTGGGC (dsDNA)
DNA 1: GGTGTGGGC
DNA 2: GCCCACACC
Kd (ZFP SBS#1384): 0.013 nM

B11: GGGTCACTG (dsDNA)
DNA 1: GGGTCACTG
DNA 2: CAGTGACCC
Kd (ZFP SBS#1351): 0.234 nM
Kd (ZFP SBS#1348): 2.58 nM

B12: GACTTGGTA (dsDNA)
DNA 1: GACTTGGTA
DNA 2: TACCAAGTC
Kd (ZFP SBS#1357): 0.032 nM
Kd (ZFP SBS#1358): 0.05 nM

B13: CCGGCGGTG (dsDNA)
DNA 1: CCGGCGGTG
DNA 2: CACCGCCGG
Kd (ZFP SBS#1375): 0.008 nM
Kd (ZFP SBS#1378): 0.012 nM
Kd (ZFP SBS#1379): 0.25 nM
Kd (ZFP SBS#1376): 0.858 nM
Kd (ZFP SBS#1374): 0.003 nM
Kd (ZFP SBS#1377): 0.012 nM

B14: ATGGGTGAA (dsDNA)
DNA 1: ATGGGTGAA
DNA 2: TTCACCCAT
Kd (ZFP SBS#1364): 1.22 nM
Kd (ZFP SBS#1365): 0.152 nM
Kd (ZFP SBS#1367): 1.03 nM
Kd (ZFP SBS#1366): 22.6 nM
